# Measured values from a protein production outcome set (Wang et al. 2014).
# Assay: label from the status in PepcDB records
row,Sequence,protein production
1,MRIPHHLSRSPTGRWSFVQRVPVDLQTVMGCRLIKRTLQTKDLAQAHVRAVVLGAGYARLFAQLTDQRVDKLSKTDADLLIARLTSAENLQDLTLNRTRQPDGTVTEQWQIDSPKDLKLYRQLMELEAMAGAALQARAHPVAVPTMFGSTHAGPSRQSSAPAIETMTLGKARDAFLATLKGSTLPKTYTIKKTAIEALVSFLGPTMKVHAITRSDLARWYQDMREKGASTPTLTNKQSYIGGRGGFFEWAMASGHYPKGDNPASGHVSYSQREKRARKKLGFKAYDRAQIQALFAPEALAKLSESARWASFLGLYTGARASEVGQLLVKDVFEEDGIPCIRISDEGEHQKVKTEVSLRTVPLHPELLKMGFLEWVGGKRKVGETRLFPAAKATAVNGQGNWITKAFSRHLAEVGKNWEPAKRGFHSLRKTLIQELQGAGVVSELRAQIVGHELDDEHHSTYGRDFTVVEKLRGLGPHSPGISRLSFFQ,failed
2,MMHHALHIKNGIVIDPKNGVKAEKMDIFVKNGKIVEESEVKGEDVKVIDANNKLVVAGGVDMHAHIAGSKINTGRTMRPEEMRVVRNIAGKFRAAVGRVLEHHHHHH,not failed
3,MRGILRMTVLAAAVFGVAGNALAEDWKLAKDEDGVKVYLSSVQGSKYKAYRGVTDIKADVATIEALQEDVKGSCKWIHACAEMKLLKQEGADAWTYSKIDMPWPVTGRDVVIHVTTEKTADGTVIRHLKADPTYIPEEKGQIRVPKLVGEWKLQPKGQGVTEVTYQVETEPGGSIPSWLANSFVVDAPLNTLKGLRSAAEKR,failed
4,MMTITTDRTPPAAGAALDRNRSAYAGLADVLERAGLAEHALYLNWGYRPVDGQPDWAARELPPGELGRMQARLVLEVLGDTPLDGRRVLDVGCGRGGALALMGRLHAPAALAGADISAANIAYCRKRHTHPRLRFQIADACRLPYPDSSMDVVFNLESSGAYPDIGAFFHHVHRILRVGGRFCLADVFDADSVAWVRAALEQAGFTLERERSIPAQVRAARERASPGIWRRLDTALTALDAPGLRRELERYLAAPSSGLFQALEDGRVDYRLFHWRKTCPAAGRIDADVIARLATRSARLDAALQDRAPSAAAPQSPAPGPANASASAWFPFTAPDAQAGFNVFALPYAGGGASVYRAWTLPRRPGAAPWQLCPVQLPGRESRFGEPLIDDMATLADRLADAIGPYAHRPWALLGCSLGCKIAFEVARRFARQGRPPALLFLMACPAPGLPLGRRISTRAEADFAREVCHLGGTPPEVLADAEMMRTLMPILRNDSALAEHYVAAEDATVNVPIVMVAAGDDHLVTVEEARRWQRHAGAGFDWRLVDGGHFFLRQRRRELTDWLLDALRRGERTLPVQTTTTDVPDVPCSTPEQPRDPSRMPAPGASANLVLAPGEILVVTAPRSLAARLTPAVLSDDEQRQLARFAFDADRERYLAAHWAKRRVLGALLAAAPRSLRFGAQAGGKPYLIGEALHFSLSHSGDRVAVAVCRHAPVGVDIEQARGIACHASAARIMHPLDRIAPQCETPEDRFLAAWSLKEAVAKCTGAGLALPFDSLRLAFAGNGRYGCLLGTHAAWEAHHQHEDGVHLAVASATPWAALRILPLDAALAEG,failed
5,MEKRQDNNEIERRILKYEQYVKEHPKKAYGYYCLGRLHMMDGKYKLAEEYFKKSLAVDGNYTFSIIGLIEACVFRRKFLKAVYLFSKNRQKIIDKYIYRVKLVRGVSSFYSKSGFFRTEAKDFLSQLSLKNSIRSIKKLVDSEANNIVLKLILCMYYLNFGEKSFYIIQLFKTCIYWDGLEDSFRWALIRRLSEFGEKLYYDANIARKFATVPDASCTDEYVDLIFSSALDREKGGRMADIYRTAEKYNKNISPRLIWRYVKWSNENSFYDPSVYDCCKKLVDMGWMDSVVADTMLKFRERNAVKLGDETERALRLFGYMD,failed
6,MKTLCTHSLPKEKMPYLLRSGEGERYLFGRQVATVMANGRSTGDLFEIVLLSGGKGDAFPLHVHKDTHEGILVLDGKLELTLDGERYLLISGDYANIPAGTPHSYRMQSHRTRLVSYTMKGNVAHLYSVIGNPYDHAEHPPYASEEVSNERFAEAAAVADIVFLDEAKPACSAKLAELTELPDGAVPYVLESGEGDRLLTGDQLHRIVAAQKNTDGQFIVVSSEGPKGDRIVDHYHEYHTETFYCLEGQMTMWTDGQEIQLNPGDFLHVPANTVHSYRLDSHYTKMVGVLVPGLFEPFFRTLGDPYEGHIFPCEPQALRFDRILQNIEALDLKVMKP,not failed
7,MNALPSSAEFSRAVGGDAVSREAVIRIEHLSKTFSDAAGPVLDDVSLTIRRGEIHGIIGRSGAGKSTLVRCINLLERPSAGRVIVSGREITSLRGRALRNARRDIGMIFQHFNVLSSHTVAGNVALPFKVAGLPRAEIARRIPPLLELVGLAHKADAYPSELSGGQKQRVGIARALALDPSVLLCDEATSALDPETTDQILALLRDINRKLGLTIVLITHEMHVVRDIATRVAVLDHGRVVEEGATFDVLAFPKSAVARSFLSGLVAHELPPPVAAQLLPAAVPGSDPVLRIVFTGTAAHDPIVADLVSVFGIQPNILHGRIDYVGDRPLGVLTLVAGGAGEKLPAVLSHLSSLGLVVEVIGHAVRSAVARRHSAARLEHHHHHH,failed
8,MLGGTAPKIAKAYQKTLTTNLNDVKNRLKDVTFKPKVLHFVNATNLNQVDGTGTIVNEWIKAAGGQNALKQKGNMISVTTETLAKSDPDVIIVGSATTAEARAALKKNAVLSKLTAVKKNRVYGNPQGTFPWDRYSAEEALQVLWAAKKLHPDQFQLEHHHHHH,not failed
9,MAPLQTPLCSEIGIDHPVVQAPVGSVSTPSLAAAVADAGGLGMLAMSWREADAIRDAYTDAANATDGVVGVNVVLDESTGVLSPSACLDACLDAGAPVVSFSFGDAGPYIDRVHEVGGTVMVTVASAAEARAAVDAGADVVVAQGREAGGHVQSDVTTMSLLPRVADGVPVPVVAAGGLGDGRGLAAALTLDADGGWFGTRFVATEESGAHEAYRQQIVDAPETATRFTDLFDRGWPDQPHRVLETDEVRQQAGADSGGESDGSDPEQIAQMPDGEPISRFADMPPLAGMTGDVEALPHYAGQSTGLAQDVRPAGEVVARLVSDARAALADASAAAE,failed
10,MWKRTITVPAPYDFAHVLDRLSLDPLMAVDVERQRITVPLHLDGLKIPVVIESIGTKEAPRFVVLAPHSNRQEDILERVSHLFQWQTPLAPVYDHFRTTELAPLFARYEGLPLVLDFDLYFCLMKCFIHQQLHLKVGYRLTERFVKTFGEERDGVWFYPRPEDIAARSYDDLRALQLSRRKAEYIVDVSRLIADGTLRLDDLEQMEDGEVMERLTAIRGIGPWTVQNFLLFGLGRPNVFPPADIGLQRAVERLFQLPKRPTASELALLGERWKPYTSYAALYLWRSIE,failed
11,MNEDLAVIVYTSGTTGNPKGVMITYENIKTNMEGVRAVDLVTETDVILAMLPYHHIMPLCFTLILPMYMGVPIVLLTEISSASLLKALQENRVTVILGVPRVWEMLDKAIMTKINQSSLAKFMFKMASKINSMSIRKMLFSKVHKQFGGNIRLMVSGGAKIDKNILEDFRTMGFCAIQGYGMTETAPIITFNVPGRERSDSAGLEHHHHHH,failed
12,MHLKNNQTLANGATVTIYPTTTEPTNYVVYLHGGGMIYGTKSDLPEELKELFTSNGYTVLALDYLLAPNTKIDHILRTLTETFQLLNEEIIQNQSFGLCGRSAGGYLMLQLTKQLQTLNLTPQFLVNFYGYTDLEFIKEPRKLLKQAISAKEIAAIDQTKPVWDDPFLSRYLLYHYSIQQALLPHFYGLPENGDWSAYALSDETLKTFPPCFSTASSSDEEVPFRYSKKIGRTIPESTFKAVYYLEHDFLKQTKDPSVITLFEQLDSWLKER,not failed
13,MANRLRTGIDVLDRKLDGGIPAGSIVVLSAQPASQAELFLYELTATRGTLWLSLDRTAESVIASIEQTPANTGDPTVRHISGEAPLDNAGKLVSALPETSNLIVDPLDVLEAQEPHSRFRAFMNDLQNHIVNTGSLAIVHCLDGRDVPPLRDTTEHFADVVFQLNTTTNGDEVENRLAIPKFRGGRAPTDIIKLNLVEEVSIDTSRDIALEHHHHHH,failed
14,QDHYKVLGLSKLRWQATSDEIRFCYRQKVLKHHPDKKKHRGIVMEKEEYFTCITKAYEQVGMSDVK,failed
